Test results as given in US20220153832A1 (PIONYR IMMUNOTHERAPEUTICS, published 2022).
Each block holds one binder with its values, some of them ahead of it.

How the values were obtained:
hVar3 (RG3036) = target: T1, hVar3 (RG3036) (human, UniProt Q9UEW3 147-520); assay: ELISA on hVar3
T1 construct: Human MARCO His-CLD-SRCR with Q452D, Y472S and K473S (already in the entry); also called recombinant human SRCR MARCO hVar3 protein

[1] = target: T2, N-terminally polyhistidine tagged human MARCO ECD (147-520), recombinant (human, UniProt Q9UEW3 147-520); assay: ProbeLife Gator
T2 construct: also called PI-RG-3000; recombinant human MARCO; not shown: N-terminal polyhistidine tag
T2 sequence: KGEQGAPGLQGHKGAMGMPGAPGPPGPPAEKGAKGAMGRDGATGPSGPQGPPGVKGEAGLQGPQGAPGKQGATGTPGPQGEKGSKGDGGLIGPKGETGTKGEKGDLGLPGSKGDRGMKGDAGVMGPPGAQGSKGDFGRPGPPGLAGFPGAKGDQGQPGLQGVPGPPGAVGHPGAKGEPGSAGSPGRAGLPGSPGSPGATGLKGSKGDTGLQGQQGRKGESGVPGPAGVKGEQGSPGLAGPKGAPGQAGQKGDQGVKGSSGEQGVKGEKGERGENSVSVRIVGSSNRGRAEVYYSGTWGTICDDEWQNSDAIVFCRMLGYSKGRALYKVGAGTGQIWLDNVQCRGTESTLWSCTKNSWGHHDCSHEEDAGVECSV
Procedure: The kinetics assay used either anti-mouse Fc or anti-human Fc probes to capture the anti-MARCO antibodies onto the probe, and then a five-step kinetic protocol was used to measure the affinity of the antibodies to the antigen, including the following steps: baseline, loading, baseline, association, and dissociation. The kinetics buffer (K buffer) provided by ProbeLife was used to establish the baseline for 60 seconds, and then the anti-mFc or anti-hFc probes were loaded with 200 nM of the antibodies for 120s until the capture reached saturation, measurement of the baseline in K buffer was performed for another 60s, followed by the association step using 200 nM antigen (human MARCO, mouse MARCO or cyno MARCO), and the dissociation step performed in K buffer for 5-10 minutes. The assay was done at 37° C. to maximize antibody:antigen dissociation.

[2] = target: T2, N-terminally polyhistidine tagged human …; assay: Biacore (SPR), binding affinity to human MARCO
Procedure, shortened: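 Binding kinetics and affinity of antibodies for the N-terminally His-tagged human MARCO extracellular domain (147-520) were determined by surface plasmon resonance with multi-cycle kinetics on a Biacore T200. The antibodies were captured on a CM4 chip carrying amine-coupled anti-mouse Fc mAb (4500 RU target), and the runs were done at 25° C in 10 mM HEPES pH 7.4, 150 mM NaCl, 3 mM EDTA, 0.05% surfactant P20. The analyte was injected at 0.625–10 nM with 90 s association and 600 s dissociation, and the constants were fitted in BIAevaluation 3.1.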

[3] = target: T2, N-terminally polyhistidine tagged human …; assay: Biacore, recombinant human MARCO; control sample
[4] = target: T2, N-terminally polyhistidine tagged human …; assay: Biacore; deamidation stress sample (40 C 2 week)
[5] = target: T2, N-terminally polyhistidine tagged human …; assay: Biacore; sample oxidized with 0.5% H2O2 (24 hr, RT)
Procedure: (PBS)+1 mM AAPH for 6 h, 0.5 and 1.5% H₂O₂ in PBS for 24 h, which was compared to a previous experiment at 40° C. (PBS)+1 mM AAPH for 6 h. Post treatment the samples were analyzed by LC-MS/MS which identified the % modification on isolated peptides derived from the antibody after trypsin digest.
Binding of the stressed samples to recombinant human MARCO was assessed by Biacore.

binding result (hVar3 (RG3036)): no binding
koff [1]: 0.00234 s⁻¹
B1: PI-3010-AB (antibody, human IgG1, kappa)
heavy: not shown
light: DIQMTQSPASLSTSLGETVSIECLASEGISNDLAWYQQKSGKSPQLLIYAASRLQDGVPSRFSGSGSGTRYSLKISGMQPEDEADYFCQQSYKYPLTFGSGTKLEIKRTVAAPSVFIFPPSDEQLKSGTASVVCLLNNFYPREAKVQWKVDNALQSGNSQESVTEQDSKDSTYSLSSTLTLSKADYEKHKVYACEVTHQGLSSPVTKSFNRGEC

Kd [2]: 0.51 nM
Kd [3]: 1.2 nM
Kd [4]: 1.24 nM
Kd [5]: 1.05 nM
B2: PI-3015-AB (antibody, human IgG1, kappa)
heavy: not shown
light: DIQMTQSPSSLSASVGDRVTITCRASEGISNDLAWYQQKPGKAPKLLIYAASRLQSGVPSRFSGSGSGTDYTLTISSMQPEDFATYYCQQSYKYPLTFGQGTKLEIKRTVAAPSVFIFPPSDEQLKSGTASVVCLLNNFYPREAKVQWKVDNALQSGNSQESVTEQDSKDSTYSLSSTLTLSKADYEKHKVYACEVTHQGLSSPVTKSFNRGEC
